Reference: US20240425607A1, “IL-18BP ANTAGONIST ANTIBODIES AND THEIR USE IN MONOTHERAPY AND COMBINATION THERAPY IN THE TREATMENT OF CANCER” (Compugen Ltd., priority 2023, published 2024)

Columns and labels:
IL18-BP = biological target: T1, IL18-BP (Mus musculus, UniProt Q9Z0M9); details: cited from earlier work
T1 sequence (Q9Z0M9 29-193): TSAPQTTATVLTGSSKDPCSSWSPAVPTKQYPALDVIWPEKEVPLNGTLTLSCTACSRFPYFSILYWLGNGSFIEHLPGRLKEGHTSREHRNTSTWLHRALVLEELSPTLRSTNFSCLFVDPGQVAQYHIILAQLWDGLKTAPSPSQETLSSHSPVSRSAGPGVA

[1] = test system: MC38ova tumor-bearing mice; assay: Peripheral effects in MC38ova tumor-bearing mice: anti-mIL18BP vs engineered mIL-18; assay type: in vivo; details: mouse, in vivo
Experimental: Nine days pre-inoculum, vials of MC38ova^dim cells were thawed into RPMI media containing 10% FBS, 1% Glutamax, 1% Sodium pyruvate, 1% HEPES, 1% NEAA, 0.01% 2-mercaptoethanol, 1% Penicillin-Streptomycin. Following centrifugation at 300×g for 8 min, cell pellet was resuspended, counted and seeded in a T175 flask. On days −7, −5 and −2, the cells were detached and re-seeded at 6-8*10^6 cells/T175 flask. On the day of inoculum, the cells were detached, centrifuged at 300×g for 10 min, filtered through […] cell strainer and resuspended in RPMI.
Experiments were performed in C57Bl/6 (female, 6-8 wk, Envigo). Mice were anesthetized with 10% Ketamine and 10% Xylazine mixture injected intraperitoneal. Next, mice were inoculated with MC38ova cells (1.2×10^6) subcutaneously to the right flank in 50 μl/mice.
At tumor volume of −120 mm^3 (day 9), mice were randomly assigned into treatment groups. Mice were treated with Synagis mouse IgG1, k isotype control 15 mg/kg (IP), anti-mIL18 bp 837 mIgG1 15 mg/kg (IP), PBS (SC), or engineered IL-18 (SC) 0.32 mg/kg. Treatments were injected twice a week for a total of 6 treatments. […] Mice were weighed every week. Mice were bled before the 4th treatment, 4 hours after the 4th treatment, and 24 hours after the 4th treatment. Serum was analyzed for presence of IFNg, TNFα, MCP1, IL6 by Cytometric Bead Array (CBA) Mouse Inflammation Kit (BD Cat. No. 552364). Spleens were harvested from mice 24 hours after the 4th treatment and weighed. For IL15 experiments, mice were treated with a single dose of 0.5 μg, 1.5 μg of IL15, or with a mix of 0.5 μg IL15 and 2.33 μg IL15R.
Spleens were crushed into 40 μm filters and red blood cells were lysed. Single-cell suspensions were seeded into a 96-well V-bottomed plate. Cells were labeled for viability and dead cells were excluded using the Fixable Viability Stain 450 (BD Bioscience Cat #562247). To block Fcγ receptors, cells were incubated with 10 μg/mL of Purified Rat Anti-Mouse CD16/CD32 (Mouse BD Fc Block™, BD Bioscience Cat #553142) in cold 1×PBS buffer for 10 minutes. Various immune populations were stained with anti-mouse antibodies (Table 17). After washing (1% BSA, 0.1% sodium azide, in PBS), cells were acquired on FACS Fortessa cytometer (BD Bioscience). Analysis was done using FlowJo.

B1: engineered mIL-18: Engineered IL-18 of US 20190070262A1, SEQ ID NO: 1920 (protein)
chain: HFGRLHCTTAVIRNINDQVLFVDKRQPVFEDMTDIDQSASEPQTRLIIYAYGDSRARGKAVTLSVKDSKMSTLSCKNKIISFEEMDPPENIDDIQSDLIFFQKRVPGHNKMEFESSLYEGHFLACQKEDDAFKLILKKKDENGDKSVMFTLTNLHQSHHHHHH
IL18-BP
  Binding to IL18-BP: not to bind IL18-BP
[1]
  Activation state of splenic lymphocytes vs control: significantly more CD69+CD4+ T-cells, CD69+CD8 T-cells, CD69+B Cells, CD107+NK cells, and CD69+CD107+ NKT cells
  Serum levels of IL18, 4 hours after the 4th treatment: very high serum levels of IL18
  Serum levels of IL18, 24 hours after the 4th treatment: returned to baseline
  Spleen enlargement vs control, average: 4.9 folds
  Splenic CD45+ immune cells, CD3+ T cells and CD19+ B cells vs control: larger number of CD45+ immune cells, as well as CD3+ T cells and CD19+B cells
